Laboratory results reported in FireProtDB (doi:10.1021/bi00493a013).
Several values for one entry are separate records, joined by “and”; a condition that tells them apart may be missing. Identical values can stand only once.

Conditions: Rattus norvegicus, pH 7.2, 20 °C, CD, Potassium phosphate 20 mM, reversible: yes, whole UniProt chain shown

B1: Fatty acid-binding protein, brain wild type, P55051 (protein)
chain: MVDAFCATWKLTDSQNFDEYMKALGVGFATRQVGNVTKPTVIISQEGGKVVIRTQCTFKNTEISFQLGEEFEETSIDDRNCKSVIRLDGDKLIHVQKWDGKETNCVREIKDGKMVVTLTFGDVVAVRCYEKA
denaturant m value (DimethylUrea, NaCl 1 M): 1.81 kcal/mol/M | denaturant midpoint (higher = more stable) (DimethylUrea, NaCl 1 M): 5.36 M | unfolding free energy (DimethylUrea, NaCl 1 M): 9.71 kcal/mol | denaturant m value (GdnHCl): 4.21 kcal/mol/M | denaturant midpoint (higher = more stable) (GdnHCl): 1.33 M | unfolding free energy (GdnHCl): 5.58 kcal/mol | denaturant m value (GdnSCN): 14 kcal/mol/M | denaturant midpoint (higher = more stable) (GdnSCN): 0.73 M | unfolding free energy (GdnSCN): 10.2 kcal/mol | denaturant m value (Urea): 1.82 kcal/mol/M and 2.17 kcal/mol/M | denaturant midpoint (higher = more stable) (Urea): 5.43 M and 5.79 M | unfolding free energy (Urea): 9.91 kcal/mol and 12.6 kcal/mol
